Read-outs that look alike come from different tables or passages of the source. Values belong to the binder of their own block, whether it stands above or below them.
Tests used:
[1] = biological target: T1, B11 protein (humanized B11 VHH as ELISA antigen); test: periplasmic extract ELISA, absorbance 450 nm, single point
T1 construct: Panning used B11-Fc; the ELISA legend says only 'B11 protein'

[2] = biological target: T2, D04 protein (humanized D04 VHH as ELISA antigen); test: as above
T2 construct: Panning used biotinylated D04-Fc; the ELISA legend says only 'D04 protein'

human lysozyme = biological target: T3, human lysozyme (human, UniProt P61626 19-148, biotinylated); test: flow cytometry, CAR Jurkat cells + 10 ug/mL biotinylated lysozyme, streptavidin-APC, % positive cells
T3 construct: also called human lysozyme protein
T3 sequence (looked up): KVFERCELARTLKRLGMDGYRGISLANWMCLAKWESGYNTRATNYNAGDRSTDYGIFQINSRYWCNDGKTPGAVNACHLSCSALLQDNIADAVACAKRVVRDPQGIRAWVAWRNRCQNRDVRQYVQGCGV

[3] = biological target: T4, chicken lysozyme (Hen Egg Lysozyme) (chicken, UniProt P00698 19-147, biotinylated); test: as above
T4 construct: also called HEL; chicken egg white lysozyme

[4] = biological target: PROT939 (an off target VHH-fc soluble); test: Octet (BLI) specificity analysis, sample vs analyte
[5] = biological target: total human IgG from sera; test: as above
[6] = biological target: T5, D04-Fc (humanized D04 VHH Fc fusion); test: as above
T5 construct: also called LysoD04.Fc; not shown: Fc

Fc-y fragment = test: as above
[7] = biological target: T6, D04-his tagged VHH (humanized D04); test: as above
T6 construct: also called LysoD04.His; D04 his-tagged protein

[8] = biological target: T6, D04-his tagged VHH (humanized D04); test: Octet (BLI), anti-idiotype VHH-Fc vs his-tagged VHH; table title prints B11-his, paragraph 353 ties these values to D04
[9] = biological target: T4, chicken lysozyme (Hen Egg Lysozyme); test: flow cytometry, CAR Nurkat cells + biotinylated HEL, streptavidin-APC, % positive cells
[10] = biological target: T2, D04 protein (humanized D04 VHH as ELISA …); test: periplasmic extract ELISA, absorbance 450 nm, single point; remark: listed apart in the source

T4 sequence (P00698 19-147): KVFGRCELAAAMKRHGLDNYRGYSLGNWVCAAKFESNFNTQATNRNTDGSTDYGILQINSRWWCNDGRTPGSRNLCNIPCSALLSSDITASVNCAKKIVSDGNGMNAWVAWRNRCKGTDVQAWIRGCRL

B1: huD04_CNTY1_B12 anti-idiotype VHH (periplasmic extract) (VHH)
VHH: EVQLLESGGGLVQPGGSLRLSCAASGRTSSNYVMGWYRQAPGKEREGVSAITSGGSTYYADSVKGRFTISRDNSKNTLYLQMNSLRAEDTAVYYCAANLYSRTGAYDYWGQGTQVTVSS
notes: Screened as periplasmic extract; also called VHH of AMD82
- binding result [1]: no binding

B3: huD04_CNTY1_D10 anti-idiotype VHH (periplasmic extract) (VHH)
VHH: EVQLLESGGGLVQPGGSLRLSCAASGRTSSNYVIGWYRQAPGKEREFVSAISGGGSTYYADSVKGRFTISRDNSKNTLYLQMNSLRAEDTAVYYCATRIYTARGAGDYWGQGTQVTVSS
notes: Screened as periplasmic extract; also called VHH of AMD88
- binding result [1]: no binding

B5: AMD77 (huD04_CNTY1_A11 anti-idiotype VHH IgG1-Fc fusion) (Fc fusion)
VHH: EVQLLESGGGLVQPGGSLRLSCAASGFTSSNYVMGWYRQAPGKEREFVSAIGSGGSTYYADSVKGRFTISRDNSKNTLYLQMNSLRAEDTAVYYCAAEIYTSGARDYWGQGTQVTVSS
modifications: Biotinylated in the FIG. 18 and FIG. 19 assays; the biotin sites are not stated.
notes: not shown: IgG1 Fc (and any hinge or linker to it)
- Response [4]: -0.0053
- Response [5]: -0.0155
- Response [6]: 2.67
- Response (Fc-y fragment): -0.009
- Response [7]: 0.337
- Kd [8]: 2.08 nM
- Response [8]: 0.497
- koff [8]: 0.00145 s⁻¹
- kon [8]: 696000 M⁻¹ s⁻¹

B7: p253 (other)
CAR: QVQLVESGGGLVQAGGSLRLSCAASGSSFSIYDVGWFRQAPGKEREFVAATIETGGHTSYADSVKGRFTISRDNAKNTVYLQMNSLKPEDTAVYYCYAKIVYDQGPSYYYWGQGTQVTVSS
- binding result (human lysozyme): no binding (tested: 10 ug/mL)
- binding result [3]: binds

B8: humanized B11 VHH CAR (hyLYSO_CW_P01_B11) on Nurkat cells (other, not shown: small tags and cut ends)
chain: EVQLLESGGGLVQPGGSLRLSCAASGGIFSGGRMGWFRQAPGKEREFVAAVITRGGSTYYADSVKGRFTISRDNSKNTLYLQMNSLRAEDTAVYYCAASEVTYDEGRYIGTKSTYDTWGQGTQVTVSS
notes: also called B11 (p1649); P1649
- binding result [9]: binds

B10: LYSO_CW_P01_D04 VHH CAR (camelid D04) on Jurkat cells (other, not shown: small tags and cut ends)
chain: QVQLVESGGGLVQAGGSLRLSCAASGRIFSIYDTIGWFRQAPGKEREFVAATITTAGITTYDDSVKGRFTISRDNAKNTVYLQMNSLKPEDTAVYYCYVRVGRGDYWGQGTQVTVSS
notes: camelid (not humanized) VHH; also called D04 (p244)
- binding result (human lysozyme): no binding (tested: 10 ug/mL)
- binding result [3]: binds

Further lines, results first:

- binding result [1]: no binding
- binding result [2]: binds
B2: huD04_CNTY1_D12 anti-idiotype VHH (periplasmic extract) (VHH)
VHH: EVQLLESGGGLVQPGGSLRLSCAASGFTSSNYVMGWYRQAPGKEREGVSAISSSGRTYYADSVKGRFTISRDNSKNTLYLQMNSLRAEDTAVYYCAAAYYSGYGETDYWGQGTQVTVSS
notes: Screened as periplasmic extract; also called VHH of AMD86

- binding result (human lysozyme): no binding (tested: 10 ug/mL)
- binding result [3]: no binding (tested: 10 ug/mL)
B4: p248 (other)
CAR: QVQLVESGGGLVQAGGSLRLSCAASGSIFSFYDVGWFRQAPGKEREFVAASITKGGGTYYVDSVKGRFTISRDNAKNTVYLQMNSLKPEDTAVYYCALATPHGYDFWGQGTQVTVSS

- binding result [1]: no binding
B6: huD04_CNTY1_D11 anti-idiotype VHH (periplasmic extract) (VHH)
VHH: EVQLLESGGGLVQPGGSLRLSCAASGSTFSYYYMGWYRQAPGKERELVSAISSGGSIYYADSVKGRFTISRDNSKNTLYLQMNSLRAEDTAVYYCARRTYYGDEADYWGQGTQVTVSS
notes: Screened as periplasmic extract; also called VHH of AMD87

- binding result [10]: no binding
B9: huB11_CNTY1_E11 anti-idiotype VHH (periplasmic extract) (VHH)
VHH: EVQLLESGGGLVQPGGSLRLSCAASGFAFSDYVMGWYRQAPGKEREFVSAIRSTTSTYYADSVKGRFTISRDNSKNTLYLQMNSLRAEDTAVYYCAADVWSGYEYDYWGQGTQVTVSS
notes: Screened as periplasmic extract; also called VHH of AMD75

- binding result [9]: binds
B11: humanized D04 VHH CAR (hyLYSO_CW_P01_D04) on Nurkat cells or primary T cells (other, not shown: small tags and cut ends)
chain: EVQLLESGGGLVQPGGSLRLSCAASGRIFSIYDTIGWFRQAPGKEREFVAATITTAGITTYDDSVKGRFTISRDNSKNTLYLQMNSLRAEDTAVYYCYVRVGRGDYWGQGTQVTVSS
notes: also called D04 (p1648); P1650

Source: patent publication US20220193133A1 (CENTURY THERAPEUTICS, published 2022)
